B1: CENP-C_(1264-1411) (tag cleaved) (domain or fragment, Drosophila melanogaster, UniProt Q9VHP9 1264-1411, looked up)
chain: GPVVFSTPLRDEQEEASTKLMQWLRGVGDAPPSASMSDENASVSSANELIFCQVDGIDYAFYNTKEKAMLGYMRFKPYQKRSMKQAKVHPLKLLVQFGEFNVETLAVGEEKEVHSVLRVGDMIEIDRGTRYSIQNAIDKVSVLMCIRS

Assays:
[1] = biological target: the molecule itself; assay: SEC-MALS
[2] = biological target: T1, CENP-A_(101-225)–H4 heterodimer (Drosophila melanogaster, UniProt Q9V6Q2 101-225; P84040 2-103); assay: pull-down
[3] = biological target: Histone H4 (Drosophila melanogaster, UniProt P84040 2-103); assay: crystal structure
[4] = biological target: T2, His-CAL1_(1-160) (Drosophila melanogaster, UniProt Q9VEN2 1-160); assay: crystal structure
T2 sequence (looked up): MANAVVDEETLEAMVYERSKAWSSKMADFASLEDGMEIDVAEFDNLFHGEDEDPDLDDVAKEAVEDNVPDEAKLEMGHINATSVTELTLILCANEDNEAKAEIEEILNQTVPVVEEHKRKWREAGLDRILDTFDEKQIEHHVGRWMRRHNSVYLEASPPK

[5] = biological target: T3, CENP-A-GFP-LacI (Drosophila melanogaster, UniProt Q9V6Q2 1-225); assay: LacO/LacI tethering assay in cells
T3 sequence (looked up): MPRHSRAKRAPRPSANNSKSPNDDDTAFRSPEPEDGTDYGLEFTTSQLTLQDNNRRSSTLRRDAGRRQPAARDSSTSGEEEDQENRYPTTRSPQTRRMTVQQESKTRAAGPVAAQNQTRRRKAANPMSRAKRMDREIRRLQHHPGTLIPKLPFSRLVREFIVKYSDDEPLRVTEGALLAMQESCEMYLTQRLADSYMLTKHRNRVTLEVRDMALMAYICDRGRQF

[6] = biological target: T1, CENP-A_(101-225)–H4 heterodimer; assay: SEC-MALS
[7] = biological target: B1; assay: AUC

Question: For B1, which “stoichiometry N” value [1] is on record?
Answer: 2

B2: His-CAL1_(1-160) F43R (domain or fragment)
chain: MANAVVDEETLEAMVYERSKAWSSKMADFASLEDGMEIDVAERDNLFHGEDEDPDLDDVAKEAVEDNVPDEAKLEMGHINATSVTELTLILCANEDNEAKAEIEEILNQTVPVVEEHKRKWREAGLDRILDTFDEKQIEHHVGRWMRRHNSVYLEASPPK
Question: Does B2 bind [2]?
Answer: binds

B3: CENP-A_(101-225) (domain or fragment)
chain: QQESKTRAAGPVAAQNQTRRRKAANPMSRAKRMDREIRRLQHHPGTLIPKLPFSRLVREFIVKYSDDEPLRVTEGALLAMQESCEMYLTQRLADSYMLTKHRNRVTLEVRDMALMAYICDRGRQF
Question: Does B3 bind [3]?
Answer: binds

Question: Does B3 bind [4]?
Answer: binds

B4: CAL1_(F43R)-V5 (natural protein, Drosophila melanogaster, UniProt Q9VEN2 1-979, looked up)
chain: MANAVVDEETLEAMVYERSKAWSSKMADFASLEDGMEIDVAERDNLFHGEDEDPDLDDVAKEAVEDNVPDEAKLEMGHINATSVTELTLILCANEDNEAKAEIEEILNQTVPVVEEHKRKWREAGLDRILDTFDEKQIEHHVGRWMRRHNSVYLEASPPKYLPPHHNSISDESDESMHSIDTARYIQQSRRRNAHMTNKNMTTIKMYRKHSHKRDELRAKYAYGDEQEHRHHMQAVLLRRRERERQLAYLASTPMQCVYSSGHHMRRKNLRKRRINSWMFDSASSSEEDTSFGGCDCHSCRRHYALSRSVYQSCPYGRGQREYHHRQMASRTMHTMRRQHTFDMEMDLRPRLPENECSCCNSDRLCSNVIHIANSSTEEWVVENRSNHLTQETQEKTRKQKHQPMDARKVSHQPVCSKGHEQKPLSSKATSVSKLVLSKEKYMQMFDSESSDEDNALAKKGLLCCSDKKKGMTFPTPNAAGKITHPTSSAKKAIRKEARPNGLAQIQEEGPTATNSPIESTYLPVAHMKSVSIDGSSGTSATFESPAKKAPKRGIRETSPLNGNELQQLISTIPIADEKASSLMEKVDNCIGRESFDDRNKDFMHMENSSTKTAVEKSTKQKRVSGKKSEIPKSIITNNEILEKNSTETLSEKQVAAKAKKQSVRKTGATGKPSTSRLKKSEKTKTTSSVTSTSKLEQVREEESDVSSEVLAKPKPQCSTTASILKQGGDGASNSEDDLQIALAMSKATYKEEQQKRKKTKREPSNKQPQSPAEKSMTVFNNQSVACNSTALANDTACYRVLPKRRGVKRAAAVSTTEEKTATNSSSSPTSSLEEMGSPTGGDPDCTVVTSTTGCEPPASERQEIPATIKITKRGILLHSPSAPEGASFTLTEQGLGKIIGERWARKYLKYHIGSRSFDSRHSVYYQPTPQLAAALSAPQDAQNIGNISGSSASDDDIFEQINRYGTVYSILENNSGDK
Question: With B4 as the binder, how does the “fold reduction of the level co-localising with CENP-A, against CAL1 WT” value [5] read?
Answer: 3 fold

B5: His-CAL1_(1-50) (domain or fragment)
chain: MANAVVDEETLEAMVYERSKAWSSKMADFASLEDGMEIDVAEFDNLFHGE
Question: How did the “stoichiometry N” value [6] turn out when B5 was run?
Answer: 1 CAL1 per CENP-A/H4 heterodimer

B6: CAL1_(841-979) (untagged) (domain or fragment, Drosophila melanogaster, UniProt Q9VEN2 841-979, looked up)
chain: GGDPDCTVVTSTTGCEPPASERQEIPATIKITKRGILLHSPSAPEGASFTLTEQGLGKIIGERWARKYLKYHIGSRSFDSRHSVYYQPTPQLAAALSAPQDAQNIGNISGSSASDDDIFEQINRYGTVYSILENNSGDK
Question: Which “stoichiometry N” value [7] does the source give for B6 here?
Answer: 1 CAL1 per CENP-C dimer

Source: publication doi:10.1101/723213 (bioRxiv, 2019)
